Data from paper PMC7680125.

How the values were obtained:
[1] = target: Isw1 (ISW1a catalytic subunit);Ioc3 (Saccharomyces cerevisiae (BY4742?);Saccharomyces cerevisiae (BY4742)) (UniProt P38144+P43596); assay: EMSA; settings: 35 mM Na-HEPES pH 7.8, 5 mM MgCl2, 0.1 mM EGTA, 0.02 M EDTA (so in the source), 70 mM NaCl, 0.1 mg/ml BSA, 5-8% glycerol, 40 uM 2-mercaptoethanol, 30 C, 30 min …
[2] = target: Isw1 (ISW1a catalytic subunit);Ioc3 dcHLB del496-565 (Saccharomyces cerevisiae (BY4742?);Saccharomyces cerevisiae (BY4742)) (UniProt P38144+P43596); assay: EMSA; settings: 35 mM Na-HEPES pH 7.8, 5 mM MgCl2, 0.1 mM EGTA, 0.02 M EDTA (so in the source), 70 mM NaCl, 0.1 mg/ml BSA, 5-8% glycerol, 40 uM 2-mercaptoethanol, 30 C, 30 min …

Substance	Kd [1] [nM]	Kd [2] [nM]
0N70 mononucleosome	30.3	32.5
CACCGGCACGGTCGCTGTTCGATACGTGCGCCGGACGTATATATCTGACACGTGCCTGGCGACTAGGGAGCGATCCCCTTGGCGGTTAAAACGCGGGGGACAGCGCGTACGTGCGTTTAAGCGGTGCTAGAGCTGTCTACGACCAATTGAGCGGCCTCGGCACCGGGAATCTCCAGGGCGGCCGCGTATAGGCTCCGGATCCTCTAGAGTCGACCTCGAAACGGGTACCCCAGGGACTTGAAGTAATAAGGACGGAGGGCCTCTTTCAACATCGATGCACGGTGGTTAGCCTTGGATTGCGCTCTACCGAGCGCTAAGCGTACTTAGAAGCGCGAGCGACGACTTCACACGGTAGGTGGGCGCGCGAACTGGGCAGATCC (double strand) [30(N1)50(N2)6 dinucleosome]	10.2	28
CCGGACGTATATATCTGACACGTGCCTGGCGACTAGGGAGCGATCCCCTTGGCGGTTAAAACGCGGGGGACAGCGCGTACGTGCGTTTAAGCGGTGCTAGAGCTGTCTACGACCAATTGAGCGGCCTCGGCACCGGGAATCTCCAGGGCGGCCGCGTATAGGCTCCGGATCCTCTAGAGTCGACCTCGAAACGGGTACCCCAGGGACTTGAAGTAATAAGGACGGAGGGCCTCTTTCAACATCGATGCACGGTGGTTAGCCTTGGATTGCGCTCTACCGAGCGCTAAGCGTACTTAGAAGCGCGAGCGACGACTTCACACGGTAGGTGGGCGCGCGAACTGGGCAGATCC (double strand) [0(N1)50(N2)6 dinucleosome]	45.9	34.5
TCGGAACGCTATCCGACTGGCACCGGCACGGTCGCTGTTCGATACGTGCGCCGGACGTATATATCTGACACGTGCCTGGCGACTAGGGAGCGATCCCCTTGGCGGTTAAAACGCGGGGGACAGCGCGTACGTGCGTTTAAGCGGTGCTAGAGCTGTCTACGACCAATTGAGCGGCCTCGGCACCGGGAATCTCCAGGGCGGCCGCGTATAGGCTCCGGATCCTCTAGAGTCGACCTCGAAACGGGTACCCCAGGGACTTGAAGTAATAAGGACGGAGGGCCTCTTTCAACATCGATGCACGGTGGTTAGCCTTGGATTGCGCTCTACCGAGCGCTAAGCGTACTTAGAAGCGCGAGCGACGACTTCACACGGTAGGTGGGCGCGCGAACTGGGCAGATCC (double strand) [50(N1)50(N2)6 dinucleosome]	5.29	12.5
